Assay [1] has as its target adult muscle nicotinic acetylcholine receptor (α1β1εδ), mouse (mouse) (UniProt P04756).
Assay [2] addresses fetal muscle nicotinic acetylcholine receptor (α1β1γδ), mouse (mouse) (UniProt P04756).
Assay [3] shares this target. The source holds these as a separate data set.

In the case of “Fraction 4 of the tentacle venom extract (TVE) of the jellyfish Aurelia aurita”, the IC50 of inhibition of ACh-elicited currents, two-electrode voltage clamp on X. laevis oocytes expressing the receptor in assay [1] stood at 2280 µg/mL; in assay [2] it was 1770 µg/mL. In assay [3], this substance registered a percent block of ACh-elicited currents at 1.5, 3 and 4.5 μg total protein of fraction 4 (25%, 50%, 96%), voltage clamp on X. laevis oocytes of 96%.

The values are drawn from paper PMC3873694.
